Laboratory results taken from patent publication US20250313631A1 (HUMMINGBIRD BIOSCIENCE PTE, published 2025).
Substitutions are numbered along the chain they refer to. Like-named read-outs stand apart in the source and are kept apart here. Each block holds one binder with its values, some of them ahead of it.

Key:
[1] = biological target: T1, recombinant human VISTA (His-tagged) (human, UniProt Q9H7M9 33-194); assay: ELISA, plate coated with human VISTA; unit nM from the legend paragraph 698
T1 construct: bought soluble protein (Sino Biological); also called hVISTA; human VISTA polypeptide

[2] = biological target: T2, recombinant mouse VISTA (His-tagged) (mouse, UniProt Q9D659 33-191); assay: ELISA, plate coated with mouse VISTA; unit nM from the legend paragraph 697
T2 construct: also called murine VISTA; mVISTA
T2 sequence (looked up): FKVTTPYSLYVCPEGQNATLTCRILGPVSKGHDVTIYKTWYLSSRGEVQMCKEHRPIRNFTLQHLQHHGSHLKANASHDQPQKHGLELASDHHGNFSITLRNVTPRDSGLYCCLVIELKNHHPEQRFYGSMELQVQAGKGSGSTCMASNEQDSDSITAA

[3] = biological target: T2, recombinant mouse VISTA (His-tagged); assay: BLI (Octet), 1:1 global fit, His-tagged mouse VISTA captured
[4] = biological target: T1, recombinant human VISTA (His-tagged); assay: ELISA, plate coated with human VISTA; unit nM from the legend paragraph 699
[5] = biological target: T2, recombinant mouse VISTA (His-tagged); assay: ELISA, plate coated with mouse VISTA; unit nM from the legend paragraph 698
[6] = biological target: T1, recombinant human VISTA (His-tagged); assay: ELISA, plate coated with human VISTA; unit nM from the legend paragraph 697
[7] = biological target: T1, recombinant human VISTA (His-tagged); assay: BLI (Octet), 1:1 global fit, His-tagged human VISTA captured
[8] = biological target: T2, recombinant mouse VISTA (His-tagged); assay: ELISA, plate coated with mouse VISTA; unit nM from the legend paragraph 699
[9] = biological target: T2, recombinant mouse VISTA (His-tagged); assay: BLI (Octet), 1:1 global fit, His-tagged mouse VISTA captured; remark: listed apart in the source
[10] = biological target: T2, recombinant mouse VISTA (His-tagged); assay: BLI (Octet), 1:1 global fit, mouse VISTA captured
Description: All measurements were performed at 25° C. with agitation at 1000 rpm. […] Sensograms were referenced for buffer effects and then fitted using the Octet QK384 user software (Pall ForteBio, USA).

human PD-L1 [11] = biological target: T3, human PD-L1 (human, UniProt Q9NZQ7 19-239); assay: BLI (Octet), His-tagged human PD-L1 on anti-Penta-HIS biosensor, antibody 500-15.6 nM
T3 construct: captured through a His tag in the BLI experiments; also called hPD-L1; B7H1/PDL-1
T3 sequence (Q9NZQ7 19-239 limits assumed): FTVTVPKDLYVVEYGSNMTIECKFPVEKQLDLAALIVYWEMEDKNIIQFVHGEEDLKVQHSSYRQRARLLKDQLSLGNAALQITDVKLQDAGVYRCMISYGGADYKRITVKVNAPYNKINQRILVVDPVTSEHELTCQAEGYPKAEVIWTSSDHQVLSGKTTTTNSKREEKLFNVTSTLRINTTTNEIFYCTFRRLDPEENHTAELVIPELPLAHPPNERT
Description: (§1) Finally, the biosensors were incubated for 120 sec in PBS pH 7.2 to obtain the dissociation curves. Kinetic and affinity constants were calculated by global fitting of the association and dissociation data to a 1:1 binding model.

[12] = biological target: T1, recombinant human VISTA (His-tagged); assay: BLI (Octet), 1:1 global fit, human VISTA captured
Description: as §1

[13] = biological target: T4, human VISTA expressed on cells (human, UniProt Q9H7M9 33-311); assay: flow cytometry, FITC anti-Fc detection; HEK293 VISTA O/E against HEK293
T4 construct: also called HEK293 VISTA O/E; HEK293T or HEK293-6E cells overexpressing human VISTA
Description: (§2) The cells were washed thrice with FACS buffer (PBS with 5 mM EDTA and 0.5% BSA) and resuspended in FITC-conjugated anti-FC antibody (Invitrogen, USA) for 40 min at 2-8° C. Cells were washed again and resuspended in 200 μL of FACS flow buffer (PBS with 5 mM EDTA) for flow cytometric analysis using MACSQuant 10 (Miltenyi Biotec, Germany). After acquisition, all raw data were analyzed using Flowlogic software. Cells were gated using forward and side scatter profile and Median of Fluorescence Intensity (MFI) value was determined for native and overexpressing cell populations.

[14] = biological target: T1, recombinant human VISTA (His-tagged); assay: competition ELISA: VSIG-3 coated, His-tagged VISTA added with the antibody, anti-His-HRP; blocked ligand VSIG-3
Description: Briefly, 96-well plates (Nunc, Denmark) were coated with 1 μg/ml of untagged or Fc-tagged VSIG-3 (R&D Systems, USA) in 1×PBS for 16 h at 4° C. […] Plates were subsequently washed three times with TBS-T and incubated with an HRP-conjugated anti-his secondary antibody for 1 h at room temperature. After washing, plates were developed with colorimetric detection substrate Turbo-TMB (Pierce, USA).

human PD-L1 [15] = biological target: T3, human PD-L1; assay: ELISA, target protein coated, absorbance 450 nm
[16] = biological target: T2, recombinant mouse VISTA (His-tagged); assay: ELISA, target protein coated, absorbance 450 nm
[17] = biological target: T1, recombinant human VISTA (His-tagged); assay: ELISA, target protein coated, absorbance 450 nm
[18] = biological target: T2, recombinant mouse VISTA (His-tagged); assay: ELISA, target protein coated, absorbance 450 nm; remark: listed apart in the source
[19] = biological target: T1, recombinant human VISTA (His-tagged); assay: ELISA, target protein coated, absorbance 450 nm; remark: listed apart in the source
[20] = biological target: T4, human VISTA expressed on cells; assay: flow cytometry, FITC anti-Fc detection; HEK293 cells overexpressing human VISTA against HEK293 cells without VISTA
Description: as §2

EC50 [1]: 0.042 nM
EC50 [2]: 3.1 nM
Kd [3]: 66.7 nM
koff [3]: 0.022 s⁻¹
kon [3]: 330000 M⁻¹ s⁻¹
EC50 [4]: 0.065 nM
EC50 [5]: 1.6 nM
EC50 [6]: 0.0024 nM
Kd [7]: < 0.001 nM
koff [7]: < 1e-07 s⁻¹
kon [7]: 343000 M⁻¹ s⁻¹
EC50 [8]: 2.44 nM
Kd [9]: 60.7 nM
koff [9]: 0.0147 s⁻¹
kon [9]: 243000 M⁻¹ s⁻¹
Kd [10]: 58.5 nM
koff [10]: 0.0162 s⁻¹
kon [10]: 277000 M⁻¹ s⁻¹
binding result (human PD-L1 [11]): no binding (tested: 500 nM)
Kd [12]: < 0.001 nM
koff [12]: < 1e-07 s⁻¹
kon [12]: 391000 M⁻¹ s⁻¹
B1: anti-VISTA clone V4-C1 IgG1 (antibody, V domains shown)
VH: QVQLQESGPGLVKPSDTLSLTCTVSGYSITSDYAWNWIRQTPGKGLEWIGYITYSGYISYNPSLRSRVTISRDTSKNQFSLKLSSVTAADTAVYSCARALYYPWYFDVWGTGTTVTVSS
VL: EIVITQSPATLSLSPGERATLSCRASSSVGYIHWYQQKPGQAPRPLIYATSNRATGIPARFSGSGSGTDNTLTISSLEPEDSAVYYCQQWSSYPPITFGGGTKLEVKR

EC50 [1]: 0.03 nM
EC50 [2]: 0.11 nM
Kd [3]: 4.26 nM
koff [3]: 0.00067 s⁻¹
kon [3]: 157000 M⁻¹ s⁻¹
EC50 [4]: 0.107 nM
EC50 [5]: 0.044 nM
EC50 [6]: 0.031 nM
Kd [7]: < 0.001 nM
koff [7]: < 1e-07 s⁻¹
kon [7]: 333000 M⁻¹ s⁻¹
EC50 [8]: 0.18 nM
Kd [9]: 3.81 nM
koff [9]: 0.00118 s⁻¹
kon [9]: 311000 M⁻¹ s⁻¹
Kd [10]: 2.88 nM
koff [10]: 0.00104 s⁻¹
kon [10]: 361000 M⁻¹ s⁻¹
binding result (human PD-L1 [11]): no binding (tested: 500 nM)
Kd [12]: 0.125 nM
koff [12]: 5.6e-05 s⁻¹
kon [12]: 450000 M⁻¹ s⁻¹
B2: anti-VISTA clone V4-C9 IgG1 (antibody, V domains shown)
VH: B1 VH with I58V
VL: B1 VL with I4L

binding result [13]: binds
B3: anti-VISTA clone 2M1-B12 IgG1 (antibody)
heavy: not shown
light: DIQMMQSPASLSASVGETVAITCGASENIYGALNWYQRKQGKSPQLLIYGATNLADGMSSRFSGSGSGRQYSLKISSLHPDDVATYYCQNVLSTPYTFGGGTKLEIKRTVAAPSVFIFPPSDEQLKSGTASVVCLLNNFYPREAKVQWKVDNALQSGNSQESVTEQDSKDSTYSLSSTLTLSKADYEKHKVYACEVTHQGLSSPVTKSFNRGEC

binding result [13]: binds
B4: anti-VISTA clone 2M1-D2 IgG1 (antibody)
heavy: not shown
light: B3 light with Q3V, M5T

binding result [13]: binds
binding result [14]: binds
B5: anti-VISTA clone 5M1-A11 IgG1 (antibody, V domains shown)
VH: QVTLKVSGPGILQPSQTLSLTCSFSGFSLSTSGMGVSWIRQPSGKGLEWLAHIYWDDDKRYNPSLKSRLTISKDSSSNQVFLKITSVDTADTATYYCARRLDGYNDPYYFDYWGQGTTLTVSS
VL: DVVMTQTPALMSASPGEKVTMTCSASSSVSYMYWYQQKPRSSPKPWIYLTSNLASGVPARFSGSGSGTSYSLTISSMEAEDAATYYCQQWNSNPYTFGGGTKLEIKR

binding result [13]: binds
B6: anti-VISTA clone 4M2-C9 IgG1 (antibody, V domains shown)
VH: B5 VH with V6E, S7C
VL: DIVMTQSPSSLSASLGDTVTITCHASQNVNVWLSWYQQKPGNIPKLLIYKASNLHAGVPSRFSGSGSGTGFTLTISSLQPEDIATYYCQQGQSYPLTFGGGTKLEIKR

binding result [13]: binds
B7: anti-VISTA clone 1M2-D2 IgG1 (antibody, V domains shown)
VH: EVKVEESGGGLVQPGGSMKLSCAASGFTFSDAWMDWVHQSPEKGLEWVAEIRSKANNHATYYVESVEGRFTISRDDSKSSVFLQVNSLRPEDTGIYYCTRRDGYYFAYWGQGTLVTVSA
VL: DIVLTQSPAIMSASLGEEITLTCSASSSVRDMHWYQQKSGTSPKVLIYNTFNLASGVPSRFSGSGSGTFYSLTISSVEAGDAAAYYCHQWSSYPTFGGGTKLEIKR

binding result [13]: binds
B8: anti-VISTA clone 4M2-D9 IgG1 (antibody, V domains shown)
VH: EVQLQESGPGLVKPSQSLSLTCTVTGYSITSDYAWNWIRQFPGNRLEWMGFISYSGFTTYSPSLESRISITRDTSKNQFFLQLISVTTEDTATYYCARNHYGGSYWYFDVWGAGTSVTVSS
VL: DIVMTQSPGSLAVSLGQRATISCRASESVEYYGTSLMQWYLQKPGQPPKLLIYAASNVESGVPDRFRGSGSGTDFSLNIHPVEEDDIAMYFCQQSRKVPWTFGGGTKLEIKR

binding result (human PD-L1 [15]): binds
binding result [16]: binds
binding result [17]: binds
B9: anti-VISTA clone 13D5-1 IgG1 (antibody, V domains shown)
VH: QVQLQQSGAELVRPGTSVKISCKASGYTFTNYWLGWVKQRPGHGLEWIGDIYPGGGYTNYNEKFKGKATLTADTSSSTAYMQLSSLTSEDSAVYFCVRSGYYYGSSWYFDVWGAGTTVTVSS
VL: DVLMTQTPLSLPVSLGDQASISCRSSQSIVHSSGNTYLEWYLQKPDQSPKLLIYKVSNRFSGVPDRFSGSGSGTDFTLKISRVEAEDLGVYYCFQGSHVPPTFGGGTKLEIKR

binding result [18]: binds
binding result [19]: binds
B10: anti-VISTA clone 13D5-13 IgG1 (antibody, V domains shown)
VH: B9 VH with T74I, V93D, S99G
VL: B9 VL with I29T, S33I, D46G, G71E

binding result [20]: binds
B11: anti-VISTA clone 4M2-D5 IgG1 (antibody, V domains shown)
VH: QVQLQQSGAELARPGASVRMSCKASGYTFTSYTMNWVKQRPGQGLEWIGFINPDSDYTTYDQKFKDKATLTADSSSSTAYMQLSSLTYDDSAVYYCTRHSYGNYGDYWGQGTTLTVSS
VL: DIVLTQSPKFLLVSAGDRVTITCKASQSVTNDVAWYQQKPGQSPKLLIYYASSRYTGVPDRFTGSGFGTDFTFTINTVQAEDLAVYFCQQDYSSPYTFGGGTKLEIKR

binding result [13]: binds
B12: anti-VISTA clone 4M2-A8 IgG1 (antibody, V domains shown)
VH: QVQLQQSGADLARPGASVKMSCKASGYTFIDYTVHWVKQRPGQGLEWIGFINPSNDYTSYNQKFKDKASLTADTSSTTAYMQLSSLTSDDSAVYYCARHSYGNYGDYWGQGTTLTVSS
VL: B11 VL with L4M, S7A, D32G, S53N, N76S
